{"source": "paper PMC4381287", "about": "“Structural characterization of the late competence protein ComFB from Bacillus subtilis” (Bioscience Reports, 2014)", "target": "the molecule itself", "experiment": "SEC; Superdex75 10/300 column, calibrated with standards of known molecular weight; wild type and variants at similar concentrations"}
{"protein": "late competence protein ComFB from Bacillus subtilis, N-terminally 6xHis-tagged, wild type (natural protein, B. subtilis, ComFB, second protein of the comF operon of Bacillus subtilis, amplified from chromosomal DNA of strain PY79; the purified tagged monomer is 13.5 kDa; the crystal model holds residues 1-91 (chain A); By LC-ESI MS the first methionine is removed; Each subunit holds one Zn2+ ion (C25, C27, C30, C88); The histidine tag was uncleaved in the crystals; also called His6-ComFB; native ComFB; source: E. …) MLVNSKEIVMKELLDRYMDQLHMACTCQVCQNDVLALSLNKVSPSYVTDFKKIAYTKAELVDKQKNTAMLVILAESAAVVSESPSDLCQTKQEEAFIN", "values": [{"measurement": "stoichiometry N", "result": 2}]}
